From paper PMC10566112 come the findings set out here.

The test concerns the target dopamine D2 receptor labelled with mCherry (D2R-mCherry) (UniProt P14416).
UniProt P14416, sequence (P14416 whole entry): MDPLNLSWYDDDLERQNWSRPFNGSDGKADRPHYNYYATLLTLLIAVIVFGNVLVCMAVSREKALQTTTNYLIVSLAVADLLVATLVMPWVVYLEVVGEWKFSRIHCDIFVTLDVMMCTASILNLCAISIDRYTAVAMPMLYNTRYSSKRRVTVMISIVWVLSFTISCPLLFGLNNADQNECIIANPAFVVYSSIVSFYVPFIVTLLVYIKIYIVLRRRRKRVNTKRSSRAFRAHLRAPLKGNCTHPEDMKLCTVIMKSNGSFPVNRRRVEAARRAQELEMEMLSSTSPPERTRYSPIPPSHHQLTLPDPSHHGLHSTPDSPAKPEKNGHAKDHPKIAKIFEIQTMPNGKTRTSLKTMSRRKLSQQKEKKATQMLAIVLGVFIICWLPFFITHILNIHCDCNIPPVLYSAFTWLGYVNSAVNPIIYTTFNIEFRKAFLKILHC

“Gαi3β1γ2 heterotrimer (Gαi3-Citrine with Gβ1 and Gγ2) (from UniProt P08754 1-354; P62873 1-340; P59768 1-71) (complex)” came in with an intracellular cAMP level in HEK293 cells after stimulation of D2R with 1 μM sumanirole, as percent of control (stimulated nontransfected cells) (% of the control) of 20. To “Gαi3β1γ9 heterotrimer (Gαi3-Citrine with Gβ1 and Gγ9) (from UniProt P08754 1-354; P62873 1-340; O14610 1-69) (complex)” belongs 70.4; to “Gαi3β1γ10 heterotrimer (Gαi3-Citrine with Gβ1 and Gγ10) (from UniProt P08754 1-354; P62873 1-340; P50151 1-68) (complex)”, 14.4.
